{"source": "paper PMC9695703", "about": "“Selection of an Aptamer against the Enzyme 1-deoxy-D-xylulose-5-phosphate Reductoisomerase from Plasmodium falciparum”", "key": {"EcDXR-6His": {"target": "T1, EcDXR-6His (Escherichia coli, UniProt P45568 1-398)", "T1 sequence": "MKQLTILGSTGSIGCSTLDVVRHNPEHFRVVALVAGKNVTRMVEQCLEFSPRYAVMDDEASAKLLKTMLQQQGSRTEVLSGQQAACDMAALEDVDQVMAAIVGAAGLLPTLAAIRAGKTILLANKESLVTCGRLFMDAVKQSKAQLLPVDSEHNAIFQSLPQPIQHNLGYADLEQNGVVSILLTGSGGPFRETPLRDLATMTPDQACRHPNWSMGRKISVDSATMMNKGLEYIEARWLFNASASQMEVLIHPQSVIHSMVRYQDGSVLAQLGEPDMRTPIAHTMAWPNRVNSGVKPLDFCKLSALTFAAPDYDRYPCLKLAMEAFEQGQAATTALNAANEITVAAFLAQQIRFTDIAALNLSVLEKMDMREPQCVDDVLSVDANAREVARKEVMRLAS", "assay": "bead-based flow cytometry saturation binding; protein on latex beads; Bmax 1.67; Kd: PBS pH 7.4, 60 min, dark, 0.3-5.4 uM aptamer; EMSA: 10 mM NaCl, 0.02% Tween-20, 50 mM HEPES pH 8.0, RT 60 min, 2% agarose 0.5x TB", "details": "protein: recombinant; tags: C-term 6xHis; label: 5' 6FAM; folded 90/5/37 C before use"}, "[1]": {"target": "T2, 6His-GST-PfDXRt-6His (1-deoxy-D-xylulose-5-phosphate reductoisomerase) (Plasmodium falciparum, UniProt Q8IKG4 73-488)", "T2 sequence": "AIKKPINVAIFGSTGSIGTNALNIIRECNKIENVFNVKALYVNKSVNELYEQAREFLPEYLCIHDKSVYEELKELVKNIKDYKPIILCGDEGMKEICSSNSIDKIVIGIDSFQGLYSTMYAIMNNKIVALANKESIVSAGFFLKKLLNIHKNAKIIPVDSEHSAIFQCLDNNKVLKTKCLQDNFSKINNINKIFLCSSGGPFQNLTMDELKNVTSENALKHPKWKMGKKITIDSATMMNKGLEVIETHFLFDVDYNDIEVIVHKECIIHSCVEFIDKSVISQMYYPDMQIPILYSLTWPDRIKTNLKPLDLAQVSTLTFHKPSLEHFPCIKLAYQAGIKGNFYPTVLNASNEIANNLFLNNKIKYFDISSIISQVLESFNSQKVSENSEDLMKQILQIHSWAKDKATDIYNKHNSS", "assay": "bead-based flow cytometry saturation binding; protein on latex beads; Bmax 0.79", "details": "protein: recombinant; tags: N-term 6xHis-GST, C-term 6xHis; label: 5' 6FAM; folded 90/5/37 C before use"}}, "data": [{"binder": "6FAM-D10 (ssDNA) DNA: ATACCAGCTTATTCAATTCACTGCCACACCACGCCCTGCCATCCGCACATCCATCGTGAGATAGTAAGTGCAATCT", "values": [{"measurement": "Kd", "setting": "EcDXR-6His", "result": "290 ± 90", "unit": "nM"}, {"measurement": "Kd", "setting": "[1]", "result": "260 ± 70", "unit": "nM"}]}]}
